Source: patent publication US20090010911A1, “METHODS AND COMPOSITIONS FOR AFFECTING CYCLOPHILIN A REGULATION OF KINASES IN MODULATING CELLULAR ACTIVITIES” (IOWA STATE UNIVERSITY RESEARCH FOUNDATION, INC., priority 2007, published 2009)

Legend:
[1] = target: T1, Itk full-length enzyme (Mus musculus, UniProt Q03526); assay: In vitro kinase assay with western blotting, phosphorylation of SH2 domain-containing substrates with added free SH2 domain or CypA; type: biochemical
T1 construct: Full-length Itk, Btk and Tec and the Itk kinase domain fragments were PCR amplified; made in house; host or cells: Sf9 insect cells (baculovirus), co-infected 1:1 with Lck baculovirus
T1 sequence (Q03526 1-625): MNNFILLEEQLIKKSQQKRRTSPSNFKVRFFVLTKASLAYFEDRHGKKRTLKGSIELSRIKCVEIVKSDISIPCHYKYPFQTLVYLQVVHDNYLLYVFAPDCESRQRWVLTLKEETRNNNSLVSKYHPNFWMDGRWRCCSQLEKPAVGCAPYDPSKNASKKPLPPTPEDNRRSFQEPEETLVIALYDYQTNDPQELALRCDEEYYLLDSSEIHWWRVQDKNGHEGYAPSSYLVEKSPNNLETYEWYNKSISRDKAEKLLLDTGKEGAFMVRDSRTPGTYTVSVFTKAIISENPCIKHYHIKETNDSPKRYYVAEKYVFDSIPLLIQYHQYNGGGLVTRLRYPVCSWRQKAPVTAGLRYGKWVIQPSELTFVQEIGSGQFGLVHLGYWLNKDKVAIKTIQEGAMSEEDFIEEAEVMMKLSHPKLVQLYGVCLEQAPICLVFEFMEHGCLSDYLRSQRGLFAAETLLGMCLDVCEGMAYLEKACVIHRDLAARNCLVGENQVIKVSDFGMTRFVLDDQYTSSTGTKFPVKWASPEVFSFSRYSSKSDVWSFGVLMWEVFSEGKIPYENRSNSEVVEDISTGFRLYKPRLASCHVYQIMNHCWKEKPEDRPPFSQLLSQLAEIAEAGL
Method: Substrate used in each experiment is indicated above each set of blots. 4(a) (left) Itk 32 substrate was incubated with Itk full-length enzyme as before (lane 1), or with Itk 32 domain:free Itk SH2 domain in ratios of 1:10, 1:25 or 1:50 (lanes 2-4, respectively) or equivalent ratios of PI3K N-terminal SH2 domain (lanes 5-7) and subjected to an in vitro kinase assay. […] Coomassie stain and an anti-FLAG blot (bottom panels) show protein levels. (right) The PLCγ1 SH2 domain competes with the PLCγ1 substrate in a similar manner. Lane 1 contains only Itk enzyme and PLCγ1 SH2C-Y783-substrate without additional free SH2 domain. Ratios of free SH2 domain to substrate are 1:5, 1:10 or 1:50 in lanes 2-4, respectively and equivalent ratios of PI3K SH2 domain are used in lanes 5-7. Coomassie stain of the gel and an anti-Itk blot (bottom panels) show protein levels. 4(b) Same experiment as shown in (a) using the Grb2 SH2 domain as a control. (left) Itk 32 substrate was incubated with Itk full-length enzyme (lane 1), or with Itk 32 domain:free Itk SH2 domain in ratios of 1:10 and 1:25 (lanes 2 & 3) or equivalent ratios of Grb2 SH2 domain (lanes 4 & 5) and subjected to an in vitro kinase assay. (right) Identical experiment following PLCγ1 substrate phosphorylation in the presence of the PLCγ1 and Grb2 SH2 domains. Lane 1 is PLCγ1 substrate alone; lanes 2 & 3 are PLCγ1 substrate:PLCγ1 SH2 domain in a 1:10 and 1:25 ratio, respectively and lanes 4 & 5 are identical ratios of PLCγ1 substrate:Grb2 SH2 domain. 4(c) The Itk SH2 domain competes with autophosphorylation of Y180 within full length Itk. For lanes 2-4, the amount of free SH2 domain is the same as used in panel (a), lanes 2-4. No exogenous SH2 domain has been added in lane 1 and full length Itk is both the enzyme and the substrate. Coomassie stain and an anti-FLAG blot (bottom panels) show protein levels. […] Initial velocities are shown for phosphorylation of peptide B (sequence shown in FIG. 5a) by full length Itk in the absence (column 1) and presence (column 2 and 3) of Itk SH2 domain. […]

[2] = target: T2, full length Itk (Mus musculus, UniProt Q03526); assay: In vitro Itk kinase assay using Peptide B as the substrate (initial velocities); type: biochemical; conditions: CypA to Itk 0 to 100 times excess; Itk 100 and 600 nM
T2 construct: made in house; host or cells: Sf9 insect cells (baculovirus), co-infected 1:1 with Lck baculovirus
T2 sequence (Q03526 1-625): T1 sequence (Q03526 1-625)
Method: Substrate used in each experiment is indicated above each set of blots. 4(a) (left) Itk 32 substrate was incubated with Itk full-length enzyme as before (lane 1), or with Itk 32 domain:free Itk SH2 domain in ratios of 1:10, 1:25 or 1:50 (lanes 2-4, respectively) or equivalent ratios of PI3K N-terminal SH2 domain (lanes 5-7) and subjected to an in vitro kinase assay. […] Coomassie stain and an anti-FLAG blot (bottom panels) show protein levels. (right) The PLCγ1 SH2 domain competes with the PLCγ1 substrate in a similar manner. Lane 1 contains only Itk enzyme and PLCγ1 SH2C-Y783-substrate without additional free SH2 domain. Ratios of free SH2 domain to substrate are 1:5, 1:10 or 1:50 in lanes 2-4, respectively and equivalent ratios of PI3K SH2 domain are used in lanes 5-7. Coomassie stain of the gel and an anti-Itk blot (bottom panels) show protein levels. 4(b) Same experiment as shown in (a) using the Grb2 SH2 domain as a control. (left) Itk 32 substrate was incubated with Itk full-length enzyme (lane 1), or with Itk 32 domain:free Itk SH2 domain in ratios of 1:10 and 1:25 (lanes 2 & 3) or equivalent ratios of Grb2 SH2 domain (lanes 4 & 5) and subjected to an in vitro kinase assay. […]
The ratio of CypA to Itk varied between o and 100 times excess CypA. […] No change in Peptide B phosphorylation is detected. […]

[3] = target: T3, Itk (Mus musculus, UniProt Q03526); assay: Pull-down experiment using purified Itk and purified CypA; type: binding; conditions: full length Itk or kinase domain alone immobilized on beads
T3 construct: Full-length Itk, Btk and Tec and the Itk kinase domain fragments were PCR amplified; made in house; host or cells: Sf9 insect cells (baculovirus), co-infected 1:1 with Lck baculovirus
T3 sequence (Q03526 1-625): T1 sequence (Q03526 1-625)
Method: In FIG. 16 full length Itk is immobilized on beads that are incubated with CypA. In FIG. 17 the kinase domain alone is immobilized on beads and incubated with CypA. […] The kinase domain alone contains the substrate docking site and so it is likely that CypA interacts with the Itk kinase domain in a manner that either completely or partially occludes the SH2 docking site.

[4] = target: T1, Itk full-length enzyme; conditions: published data (Brazin et al. 2002); cited from earlier work
[5] = target: T4, Itk LKD enzyme (Mus musculus, UniProt Q03526); assay: Quantitative kinase assay, Km determination for Peptide B and PLCγ1 SH2C-Peptide B fusion; type: biochemical; conditions: phosphorylation by Itk LKD enzyme 0.9 μM, 200 μM ATP, room temperature
T4 construct: linker kinase domain (Itk LKD); made in house; host or cells: Sf9 insect cells (baculovirus), co-infected 1:1 with Lck baculovirus
T4 sequence (Q03526 344-625 limits assumed): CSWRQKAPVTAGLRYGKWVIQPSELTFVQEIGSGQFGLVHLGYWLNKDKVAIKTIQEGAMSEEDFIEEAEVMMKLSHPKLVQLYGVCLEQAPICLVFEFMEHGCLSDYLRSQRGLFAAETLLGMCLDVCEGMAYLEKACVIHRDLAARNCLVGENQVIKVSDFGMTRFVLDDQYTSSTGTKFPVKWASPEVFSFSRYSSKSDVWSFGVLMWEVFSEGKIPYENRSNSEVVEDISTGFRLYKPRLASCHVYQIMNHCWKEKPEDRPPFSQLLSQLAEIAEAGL
From the text: 5(a) Construction of a PLCγ1 SH2C-Peptide B fusion protein was based on alignment of Y783 within the PLCγ1 linker and the Tyr of Peptide B. The 14 amino acids of Peptide B were used to replace the last 16 amino acids of PLCγ1 SH2C-Y783-. The Tyr that is phosphorylated in each substrate is boxed. A mutant construct is also shown that contains serine in place of the tyrosine of peptide B. This site was mutated to serine instead of phenylalanine due to solubility problems associated with the Tyr to Phe mutation. 5(b) FLAG-tagged Itk LKD enzyme (1 μM) was incubated with 20 μM of the PLCγ1 SH2C-Peptide B fusion protein (lane 4) or 20 μM of the PLCγ1 SH2C-Peptide B(YS) mutant protein (lane 5) in an in vitro kinase assay. Lanes 1-3 are Itk enzyme alone, PLCγ1 SH2C-Peptide B substrate alone and PLCγ1 SH2C-Peptide B(YS) substrate alone, respectively, that have each been subjected to the same in vitro kinase assay conditions. (c & d) FLAG-tagged Itk LKD enzyme was incubated with increasing amounts of biotinylated PLCγ1 SH2C-Peptide B 5(c) or biotinylated Peptide B alone 5(d) in an in vitro kinase assay. 5(e) Kinetic parameters describing phosphorylation of Peptide B and the PLCγ1 SH2C-Peptide B fusion protein by Itk. Data shown are the average of two independent experiments. […]

CypA: peptidyl-prolyl isomerase Cyclophilin A, target of the immunosuppressive drug cyclosporin A
effect on phosphorylation of Itk SH3-SH2 protein substrate (Y180) ([1]; CypA:Itk 32 ratios 0.1:1, 1:1, 10:1, 25:1, signal reduced at 10:1 and 25:1): reduce phosphorylation | effect on phosphorylation kinetics of Peptide B [2]: no effect | interaction with Itk (pull-down) [3]: interacts directly with Itk | effect on autophosphorylation of Itk in an in vitro kinase assay [4]: reduces autophosphorylation of Itk

Aminohexanoyl biotin-EQEDEPEGIYGVLF-NH2 [Peptide B, reference compound]
Km [5]: 87 µM

Grb2 SH2 domain: Grb2 SH2 domain, control SH2 domain [reference compound]
inhibition of PLCγ1 SH2C-Y783- substrate phosphorylation by free SH2 domain ([1]; substrate:free SH2 domain ratios 1:5 to 1:50): do not inhibit | inhibition of Itk 32 substrate phosphorylation (Y180) by free SH2 domain ([1]; substrate:free SH2 domain ratios 1:10, 1:25, 1:50): do not inhibit
